We go through four molecules from patent US20100322941A1 (published 2010).

Assay [1] addresses T1, recombinant human IP-10 (human, UniProt P02778 22-98).
T1 construct: mature; also called hIP-10; rhIP-10
T1 sequence (looked up): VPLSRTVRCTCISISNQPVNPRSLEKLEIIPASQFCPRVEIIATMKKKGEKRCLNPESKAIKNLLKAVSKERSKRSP
Description: cell-based or functional assay.

The target of assay [2] is T1, recombinant human IP-10. Description: SPR (Biacore 2000); the text's value differs from Table 8 (9.2 × 10^-9 M). The method, then: 200RU (response unit) of a goat anti-human polyclonal IgG (ahIgG; Biacore AB, Uppsala, Sweden) were immobilized by EDC/NHS chemistry on a C1 Biacore chip. […] The surface was regenerated after each cycle by injection of 10 mM glycine pH=1.5 at 30 μL/min, for 30 s followed by 1 min. of stabilization time in HBS-EP buffer.
Binding was measured by passing either hIP-10 (Peprotech, Rocky Hill N.J.) or a NusA-hIP-10 fusion protein at the following concentrations: 34.7 nM, 11.6 nM, 3.85 nM, 1.28 nM, 0.428 nM, 0.142 nM and OnM. All solutions were diluted in HBS-EP buffer (Biacore AB, Uppsala, Sweden). Injection was performed at 50 μl/min for 3 min. followed by 12 min. of dissociation time and the temperature was set at 25° C. […] Very similar values were obtained using rhIP-10 or the NusA-hIP-10 fusion, but better response signals were obtained with the fusion protein due to its larger size that induces a better response on the Biacore.
Background: Surface plasmon resonance follows binding to a sensor surface in real time, without labels.

B1: CC21R3P1_F1 (scFv format) (scFv, part only; not given: linker, domain order, vector tags, V domains shown, not shown: another chain or arm of the molecule; small tags and cut ends)
VH: QVQLVESGGGVVQPGRSHTLSCAASGFAFKNSGIHWVRQAPGKGLEWVAVISYDGSNKFYADSVKGRFTISRDNSQNTVYLQMTDLRPDDTAVYYCARDGSESEYLDYWGKGTLVTVSS
VL: NFMLTQPHSVSESPGKTVTISCTGSGGSIDRNYVQWYQQRPGSAPITVIYEDNQRPSGVPDRFSGSIDSSSNSASLTISGLRTDDEADYYCQSYDSINLWVFGGGTKVTVL
For B1, in assay [1], the Calcium flux IC50 (nM); hCXCR3-expressing L1.2 cells, 10 nM hIP-10 is 36 nM and the Chemotaxis IC50 (nM); hCXCR3-expressing L1.2 cells, 2 nM hIP-10 was determined as 18 nM.

B2: CF1A11R3P3_F3 (scFv format) (scFv, part only; not given: linker, domain order, vector tags, V domains shown, not shown: another chain or arm of the molecule; small tags and cut ends)
VH: QVQLVESGGGVVQPGRSLRLSCAASGFTFSNSGIHWVRQAPGKGLEWVAVISYDGSNKFYADSVKGRFTISRDNSKNTLYLQMNSLRAEDTAVYYCAKLRDNGEYLDYWGQGTLVTVSS
VL: NFMLTQPHSVSESPGKTVTISCTGSGGSIDRNYVQWYQQRPGSAPITVIYEDNQRPSGVPDRFSGSIDSSSNSASLTISGLRTDDEADYYCQSYDSINLWVFGGGTKVTVL
On to B2, for which, in assay [1], the Calcium flux IC50 (nM); hCXCR3-expressing L1.2 cells, 10 nM hIP-10 was 14 nM and the Chemotaxis IC50 (nM); hCXCR3-expressing L1.2 cells, 1 nM hIP-10 amounted to 1.8 nM.

B3: CC21R3P1_F1 (IgG1 format) (antibody, V domains shown)
VH: QVQLVESGGGVVQPGRSHTLSCAASGFAFKNSGIHWVRQAPGKGLEWVAVISYDGSNKFYADSVKGRFTISRDNSQNTVYLQMTDLRPDDTAVYYCARDGSESEYLDYWGKGTLVTVSS
VL: NFMLTQPHSVSESPGKTVTISCTGSGGSIDRNYVQWYQQRPGSAPITVIYEDNQRPSGVPDRFSGSIDSSSNSASLTISGLRTDDEADYYCQSYDSINLWVFGGGTKVTVL
For orientation: Kd means the concentration at which binding is half-saturated. Take B3: the equilibrium dissociation constant (Kd) in assay [2] was 90.2 nM.

B4: CC21R3P5_C5 (scFv format) (scFv, part only; not given: linker and tags, part only)
scFv, part: QVQLVQSGGGVVQPGRSLRLSCAASGFTFSTYGMHWVRQAPGKGLEWVAVISYDGGTKYYADSVKGRFTISRDNSMKTLYLQMNSLRTEDTAVYYCAKDLGDLPPGLDYWGRGTMVTVSSCHEMICALLYSYNTHESIZEDSYELTQPPSVSVALGQTATITCGGSSIESKSVHWYQEKPGQAPVLVIYKDSNRPSVIPERFSGSNSGNTATLTIGRAQAGDEADYYCQVWDSSTGVVFGGGTKLTVL
As to B4, in assay [1], the Calcium flux IC50 (nM); hCXCR3-expressing L1.2 cells, 10 nM hIP-10 worked out at 89 nM and the Chemotaxis IC50 (nM); hCXCR3-expressing L1.2 cells, 1 nM hIP-10 was 90 nM.
